Results taken from paper PMC7201271.

Columns and labels:
[1] = biological target: NmqNOR-BRIL (Neisseria meningitidis qNOR with apocytochrome b562 fused to its C-terminus) (Neisseria meningitidis); assay: cryo-EM structure; NmqNOR-BRIL peak 1 at 4 mg/ml, no additional buffer components; C2 symmetry, 3.06 A
[2] = biological target: Neisseria meningitidis quinol-dependent nitric oxide reductase, wild type (Neisseria meningitidis); assay: native gel or EMSA; blue native PAGE of peak 1 and peak 2 fractions after concentration in 100 kDa cutoff devices; 5 and 10 ug loaded

stoichiometry N [2]	Substance	stoichiometry N [1]
	NmqNOR-BRIL (Neisseria meningitidis qNOR with apocytochrome b562 fused to its C-terminus) (enzyme)	2
2	Neisseria meningitidis quinol-dependent nitric oxide reductase, wild type (enzyme)	
